Data as given in patent publication JP2014043405A (dated 2014).

T1: ヒトFcγRIIb (human, UniProt P31994 43-217)
T1 construct: extracellular domain; for the crystals it was expressed with kifunensine and its N-glycans trimmed with Endo F1; also called FcγRIIb細胞外領域
T1 sequence (looked up): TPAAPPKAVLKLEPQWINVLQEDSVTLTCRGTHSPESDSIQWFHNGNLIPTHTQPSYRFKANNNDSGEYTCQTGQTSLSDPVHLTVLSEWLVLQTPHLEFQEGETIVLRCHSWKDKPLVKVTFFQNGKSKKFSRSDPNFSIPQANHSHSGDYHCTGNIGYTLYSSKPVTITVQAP

B1: IL6R-BP423/IL6R-L (antibody, human IgG1)
heavy: QVQLQESGPGLVKPSETLSLTCAVSGHSISHDHAWSWVRQPPGEGLEWIGFISYSGITNYNPSLQGRVTISRDNSKNTLYLQMNSLRAEDTAVYYCARSLARTTAMDYWGEGTLVTVSSASTKGPSVFPLAPSSKSTSGGTAALGCLVKDYFPEPVTVSWNSGALTSGVHTFPAVLQSSGLYSLSSVVTVPSSSLGTQTYICNVNHKPSNTKVDKKVEPKSCDKTHTCPPCPAPDLLGDDSVFLFPPKPKDTLMISRTPEVTCVVVDVAEEDGEVKFNWYVDGVEVHNAKTKPREEQYNSTYRVVSVLTVLHQDWLNGKEYKCKVSNKALPRPIEKTISKAKGQPREPQVYTLPPSRDELTKNQVSLTCLVKGFYPSDIAVEWESNGQPENNYKTTPPVLDSDGSFFLYSKLTVDKSRWQQGNVFSCSVMHEALHNHYTQESLSLSP
light: DIQMTQSPSSLSASVGDRVTITCRASQDISSYLNWYQQKPGKAPKLLIYYTSRLHSGVPSRFSGSGSGTDFTFTISSLQPEDIATYYCQQGNTLPYTFGQGTKVEIK
B2: IL6R-BP267/IL6R-LにE269Dの改変が加えられた改変体 (antibody, human IgG1)
heavy: QVQLQESGPGLVKPSETLSLTCAVSGHSISHDHAWSWVRQPPGEGLEWIGFISYSGITNYNPSLQGRVTISRDNSKNTLYLQMNSLRAEDTAVYYCARSLARTTAMDYWGEGTLVTVSSASTKGPSVFPLAPSSKSTSGGTAALGCLVKDYFPEPVTVSWNSGALTSGVHTFPAVLQSSGLYSLSSVVTVPSSSLGTQTYICNVNHKPSNTKVDKKVEPKSCDKTHTCPPCPAPDLLGDDSVFLFPPKPKDTLMISRTPEVTCVVVDVSEDDGEVKFNWYVDGVEVHNAKTKPREEQYNSTYRVVSVLTVLHQDWLNGKEYKCKVSNKALPAPIEKTISKAKGQPREPQVYTLPPSRDELTKNQVSLTCLVKGFYPSDIAVEWESNGQPENNYKTTPPVLDSDGSFFLYSKLTVDKSRWQQGNVFSCSVMHEALHNHYTQESLSLSP
light: DIQMTQSPSSLSASVGDRVTITCRASQDISSYLNWYQQKPGKAPKLLIYYTSRLHSGVPSRFSGSGSGTDFTFTISSLQPEDIATYYCQQGNTLPYTFGQGTKVEIK
notes: also called IL6R-BP267 + E269D
B3: IL6R-BP267/IL6R-LにV266Mの改変が加えられた改変体 (antibody, human IgG1)
heavy: QVQLQESGPGLVKPSETLSLTCAVSGHSISHDHAWSWVRQPPGEGLEWIGFISYSGITNYNPSLQGRVTISRDNSKNTLYLQMNSLRAEDTAVYYCARSLARTTAMDYWGEGTLVTVSSASTKGPSVFPLAPSSKSTSGGTAALGCLVKDYFPEPVTVSWNSGALTSGVHTFPAVLQSSGLYSLSSVVTVPSSSLGTQTYICNVNHKPSNTKVDKKVEPKSCDKTHTCPPCPAPDLLGDDSVFLFPPKPKDTLMISRTPEVTCVVVDMSEEDGEVKFNWYVDGVEVHNAKTKPREEQYNSTYRVVSVLTVLHQDWLNGKEYKCKVSNKALPAPIEKTISKAKGQPREPQVYTLPPSRDELTKNQVSLTCLVKGFYPSDIAVEWESNGQPENNYKTTPPVLDSDGSFFLYSKLTVDKSRWQQGNVFSCSVMHEALHNHYTQESLSLSP
light: DIQMTQSPSSLSASVGDRVTITCRASQDISSYLNWYQQKPGKAPKLLIYYTSRLHSGVPSRFSGSGSGTDFTFTISSLQPEDIATYYCQQGNTLPYTFGQGTKVEIK
notes: also called IL6R-BP267 + V266M
B4: IL6R-BP449/IL6R-L (antibody, human IgG1)
heavy: QVQLQESGPGLVKPSETLSLTCAVSGHSISHDHAWSWVRQPPGEGLEWIGFISYSGITNYNPSLQGRVTISRDNSKNTLYLQMNSLRAEDTAVYYCARSLARTTAMDYWGEGTLVTVSSASTKGPSVFPLAPSSKSTSGGTAALGCLVKDYFPEPVTVSWNSGALTSGVHTFPAVLQSSGLYSLSSVVTVPSSSLGTQTYICNVNHKPSNTKVDKKVEPKSCDKTHTCPPCPAPDLLGDDSVFLFPPKPKDTLMISRTPEVTCVVVDVAEEDGEVKFNWYVDGVEVHNAKTKPREEQYNSTYRVVSVLTVLHQDWLNGKEYKCKVSNKALPRPIEKTISKAKGQPREPQVYTLPPSRDELTKNQVSLTCLVKGFYPSDIAVEWESNGQPENNYKTTPEVLDSDGSFFLYSKLTVDKSRWQQGNVFSCSVMHEALHNHYTQESLSLSP
light: DIQMTQSPSSLSASVGDRVTITCRASQDISSYLNWYQQKPGKAPKLLIYYTSRLHSGVPSRFSGSGSGTDFTFTISSLQPEDIATYYCQQGNTLPYTFGQGTKVEIK
B5: IL6R-BP267/IL6R-LにV264Iの改変が加えられた改変体 (antibody, human IgG1)
heavy: QVQLQESGPGLVKPSETLSLTCAVSGHSISHDHAWSWVRQPPGEGLEWIGFISYSGITNYNPSLQGRVTISRDNSKNTLYLQMNSLRAEDTAVYYCARSLARTTAMDYWGEGTLVTVSSASTKGPSVFPLAPSSKSTSGGTAALGCLVKDYFPEPVTVSWNSGALTSGVHTFPAVLQSSGLYSLSSVVTVPSSSLGTQTYICNVNHKPSNTKVDKKVEPKSCDKTHTCPPCPAPDLLGDDSVFLFPPKPKDTLMISRTPEVTCVVIDVSEEDGEVKFNWYVDGVEVHNAKTKPREEQYNSTYRVVSVLTVLHQDWLNGKEYKCKVSNKALPAPIEKTISKAKGQPREPQVYTLPPSRDELTKNQVSLTCLVKGFYPSDIAVEWESNGQPENNYKTTPPVLDSDGSFFLYSKLTVDKSRWQQGNVFSCSVMHEALHNHYTQESLSLSP
light: DIQMTQSPSSLSASVGDRVTITCRASQDISSYLNWYQQKPGKAPKLLIYYTSRLHSGVPSRFSGSGSGTDFTFTISSLQPEDIATYYCQQGNTLPYTFGQGTKVEIK
notes: also called IL6R-BP267 + V264I
B6: IL6R-BP267/IL6R-LにS267Eの改変が加えられた改変体 (antibody, human IgG1)
heavy: QVQLQESGPGLVKPSETLSLTCAVSGHSISHDHAWSWVRQPPGEGLEWIGFISYSGITNYNPSLQGRVTISRDNSKNTLYLQMNSLRAEDTAVYYCARSLARTTAMDYWGEGTLVTVSSASTKGPSVFPLAPSSKSTSGGTAALGCLVKDYFPEPVTVSWNSGALTSGVHTFPAVLQSSGLYSLSSVVTVPSSSLGTQTYICNVNHKPSNTKVDKKVEPKSCDKTHTCPPCPAPDLLGDDSVFLFPPKPKDTLMISRTPEVTCVVVDVEEEDGEVKFNWYVDGVEVHNAKTKPREEQYNSTYRVVSVLTVLHQDWLNGKEYKCKVSNKALPAPIEKTISKAKGQPREPQVYTLPPSRDELTKNQVSLTCLVKGFYPSDIAVEWESNGQPENNYKTTPPVLDSDGSFFLYSKLTVDKSRWQQGNVFSCSVMHEALHNHYTQESLSLSP
light: DIQMTQSPSSLSASVGDRVTITCRASQDISSYLNWYQQKPGKAPKLLIYYTSRLHSGVPSRFSGSGSGTDFTFTISSLQPEDIATYYCQQGNTLPYTFGQGTKVEIK
notes: also called IL6R-BP267 + S267E
B7: IL6R-BP448/IL6R-L (antibody, human IgG1)
heavy: QVQLQESGPGLVKPSETLSLTCAVSGHSISHDHAWSWVRQPPGEGLEWIGFISYSGITNYNPSLQGRVTISRDNSKNTLYLQMNSLRAEDTAVYYCARSLARTTAMDYWGEGTLVTVSSASTKGPSVFPLAPSSKSTSGGTAALGCLVKDYFPEPVTVSWNSGALTSGVHTFPAVLQSSGLYSLSSVVTVPSSSLGTQTYICNVNHKPSNTKVDKKVEPKSCDKTHTCPPCPAPDLLGDDSVFLFPPKPKDTLMISRTPEVTCVVVDVAEEDGEVKFNWYVDGVEVHNAKTKPREEQYNSTYRVVSVLTVLHQDWLNGKEYKCKVSNKALPRPIEKTISKAKGQPREPQVYTLPPSRDELTKNQVSLTCLVKGFYPSDIAVEWESNGQPENNYKTTPDVLDSDGSFFLYSKLTVDKSRWQQGNVFSCSVMHEALHNHYTQESLSLSP
light: DIQMTQSPSSLSASVGDRVTITCRASQDISSYLNWYQQKPGKAPKLLIYYTSRLHSGVPSRFSGSGSGTDFTFTISSLQPEDIATYYCQQGNTLPYTFGQGTKVEIK
B8: IL6R-BP267/IL6R-LにV266Fの改変が加えられた改変体 (antibody, human IgG1)
heavy: QVQLQESGPGLVKPSETLSLTCAVSGHSISHDHAWSWVRQPPGEGLEWIGFISYSGITNYNPSLQGRVTISRDNSKNTLYLQMNSLRAEDTAVYYCARSLARTTAMDYWGEGTLVTVSSASTKGPSVFPLAPSSKSTSGGTAALGCLVKDYFPEPVTVSWNSGALTSGVHTFPAVLQSSGLYSLSSVVTVPSSSLGTQTYICNVNHKPSNTKVDKKVEPKSCDKTHTCPPCPAPDLLGDDSVFLFPPKPKDTLMISRTPEVTCVVVDFSEEDGEVKFNWYVDGVEVHNAKTKPREEQYNSTYRVVSVLTVLHQDWLNGKEYKCKVSNKALPAPIEKTISKAKGQPREPQVYTLPPSRDELTKNQVSLTCLVKGFYPSDIAVEWESNGQPENNYKTTPPVLDSDGSFFLYSKLTVDKSRWQQGNVFSCSVMHEALHNHYTQESLSLSP
light: DIQMTQSPSSLSASVGDRVTITCRASQDISSYLNWYQQKPGKAPKLLIYYTSRLHSGVPSRFSGSGSGTDFTFTISSLQPEDIATYYCQQGNTLPYTFGQGTKVEIK
notes: also called IL6R-BP267 + V266F
B9: IL6R-BP267/IL6R-LにS267Gの改変が加えられた改変体 (antibody, human IgG1)
heavy: QVQLQESGPGLVKPSETLSLTCAVSGHSISHDHAWSWVRQPPGEGLEWIGFISYSGITNYNPSLQGRVTISRDNSKNTLYLQMNSLRAEDTAVYYCARSLARTTAMDYWGEGTLVTVSSASTKGPSVFPLAPSSKSTSGGTAALGCLVKDYFPEPVTVSWNSGALTSGVHTFPAVLQSSGLYSLSSVVTVPSSSLGTQTYICNVNHKPSNTKVDKKVEPKSCDKTHTCPPCPAPDLLGDDSVFLFPPKPKDTLMISRTPEVTCVVVDVGEEDGEVKFNWYVDGVEVHNAKTKPREEQYNSTYRVVSVLTVLHQDWLNGKEYKCKVSNKALPAPIEKTISKAKGQPREPQVYTLPPSRDELTKNQVSLTCLVKGFYPSDIAVEWESNGQPENNYKTTPPVLDSDGSFFLYSKLTVDKSRWQQGNVFSCSVMHEALHNHYTQESLSLSP
light: DIQMTQSPSSLSASVGDRVTITCRASQDISSYLNWYQQKPGKAPKLLIYYTSRLHSGVPSRFSGSGSGTDFTFTISSLQPEDIATYYCQQGNTLPYTFGQGTKVEIK
notes: also called IL6R-BP267 + S267G
B10: IL6R-BP267/IL6R-LにS267Aの改変が加えられた改変体 (antibody, human IgG1)
heavy: QVQLQESGPGLVKPSETLSLTCAVSGHSISHDHAWSWVRQPPGEGLEWIGFISYSGITNYNPSLQGRVTISRDNSKNTLYLQMNSLRAEDTAVYYCARSLARTTAMDYWGEGTLVTVSSASTKGPSVFPLAPSSKSTSGGTAALGCLVKDYFPEPVTVSWNSGALTSGVHTFPAVLQSSGLYSLSSVVTVPSSSLGTQTYICNVNHKPSNTKVDKKVEPKSCDKTHTCPPCPAPDLLGDDSVFLFPPKPKDTLMISRTPEVTCVVVDVAEEDGEVKFNWYVDGVEVHNAKTKPREEQYNSTYRVVSVLTVLHQDWLNGKEYKCKVSNKALPAPIEKTISKAKGQPREPQVYTLPPSRDELTKNQVSLTCLVKGFYPSDIAVEWESNGQPENNYKTTPPVLDSDGSFFLYSKLTVDKSRWQQGNVFSCSVMHEALHNHYTQESLSLSP
light: DIQMTQSPSSLSASVGDRVTITCRASQDISSYLNWYQQKPGKAPKLLIYYTSRLHSGVPSRFSGSGSGTDFTFTISSLQPEDIATYYCQQGNTLPYTFGQGTKVEIK
notes: also called IL6R-BP267 + S267A

target: T1, ヒトFcγRIIb; assay: SPR, KD

Binding result, binds:
B1
B2
B3
B4
B5
B6
B7
B8
B9
B10
